The source of these data is IntAct's records for PubMed 14594812.

Sequences and labels used below:
B1: Phospholipase D alpha 1 (Arabidopsis thaliana (Mouse-ear cress)), Q38882 (parent)
chain: MAQHLLHGTLHATIYEVDALHGGGVRQGFLGKILANVEETIGVGKGETQLYATIDLQKARVGRTRKIKNEPKNPKWYESFHIYCAHLASDIIFTVKDDNPIGATLIGRAYIPVDQVINGEEVDQWVEILDNDRNPIQGGSKIHVKLQYFHVEEDRNWNMGIKSAKFPGVPYTFFSQRQGCKVSLYQDAHIPDNFVPRIPLAGGKNYEPQRCWEDIFDAISNAKHLIYITGWSVYAEIALVRDSRRPKPGGDVTIGELLKKKASEGVRVLLLVWDDRTSVDVLKKDGLMATHDEETENFFRGSDVHCILCPRNPDDGGSIVQSLQISTMFTHHQKIVVVDSEMPSRGGSEMRRIVSFVGGIDLCDGRYDTPFHSLFRTLDTVHHDDFHQPNFTGAAITKGGPREPWHDIHSRLEGPIAWDVMYNFEQRWSKQGGKDILVKLRDLSDIIITPSPVMFQEDHDVWNVQLFRSIDGGAAAGFPESPEAAAEAGLVSGKDNIIDRSIQDAYIHAIRRAKDFIYVENQYFLGSSFAWAADGITPEDINALHLIPKELSLKIVSKIEKGEKFRVYVVVPMWPEGLPESGSVQAILDWQRRTMEMMYKDVIQALRAQGLEEDPRNYLTFFCLGNREVKKDGEYEPAEKPDPDTDYMRAQEARRFMIYVHTKMMIVDDEYIIIGSANINQRSMDGARDSEIAMGGYQPHHLSHRQPARGQIHGFRMSLWYEHLGMLDETFLDPSSLECIEKVNRISDKYWDFYSSESLEHDLPGHLLRYPIGVASEGDITELPGFEFFPDTKARILGTKSDYLPPILTT
partner: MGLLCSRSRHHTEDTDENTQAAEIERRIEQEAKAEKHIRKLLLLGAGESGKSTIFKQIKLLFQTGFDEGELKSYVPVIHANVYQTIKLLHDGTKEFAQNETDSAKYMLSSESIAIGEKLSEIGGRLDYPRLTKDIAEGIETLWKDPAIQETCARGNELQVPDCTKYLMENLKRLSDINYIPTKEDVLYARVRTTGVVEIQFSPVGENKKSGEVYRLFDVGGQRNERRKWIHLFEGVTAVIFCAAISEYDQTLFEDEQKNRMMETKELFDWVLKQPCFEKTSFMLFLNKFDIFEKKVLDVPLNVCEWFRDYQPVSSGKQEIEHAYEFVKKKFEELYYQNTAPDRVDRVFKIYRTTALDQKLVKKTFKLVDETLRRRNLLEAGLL

In the first assay the parent is B1. To be noted: with gpa1_arath GPA1, P18064.
Take F565A: the “effect of a mutation on the interaction” value is recorded as “decreasing interaction”.

For the variant K564A, the “effect of a mutation on the interaction” value was “disrupting interaction”.

In the case of E563A, the “effect of a mutation on the interaction” value is “decreasing interaction”.

The next assay covers variants of B1. As to conditions: with gpa1_arath GPA1, P18064. This is another data set of the same source.
K564A: the “effect of a mutation on the interaction” value is “decreasing interaction”.
